Data from US20070150973A1.

Legend:
[1] = target: FKBP×3-VP16 fusion protein (human; Herpes Simplex Virus) (UniProt P62942); assay: cell-based or functional assay
[2] = target: FKBP×3-p65 fusion protein (human) (UniProt P62942); assay: cell-based or functional assay

## ZFHD1-FKBP×3 fusion protein (from UniProt P08046 333-390; P14859 378-439; P62942 2-108; P62942 2-108; P62942 2-108)
[1]
  FK1012 concentration at peak SEAP activation: 100 nM
[2]
  FK1012 concentration at peak SEAP activation: 100 nM
